From patent publication US20230265151A1, “GIP/GLP1 CO-AGONIST COMPOUNDS” (priority 2020, published 2023)

T1: human glucose-dependent insulinotropic polypeptide (GIP) receptor (human) (UniProt P48546)
T1 sequence (looked up): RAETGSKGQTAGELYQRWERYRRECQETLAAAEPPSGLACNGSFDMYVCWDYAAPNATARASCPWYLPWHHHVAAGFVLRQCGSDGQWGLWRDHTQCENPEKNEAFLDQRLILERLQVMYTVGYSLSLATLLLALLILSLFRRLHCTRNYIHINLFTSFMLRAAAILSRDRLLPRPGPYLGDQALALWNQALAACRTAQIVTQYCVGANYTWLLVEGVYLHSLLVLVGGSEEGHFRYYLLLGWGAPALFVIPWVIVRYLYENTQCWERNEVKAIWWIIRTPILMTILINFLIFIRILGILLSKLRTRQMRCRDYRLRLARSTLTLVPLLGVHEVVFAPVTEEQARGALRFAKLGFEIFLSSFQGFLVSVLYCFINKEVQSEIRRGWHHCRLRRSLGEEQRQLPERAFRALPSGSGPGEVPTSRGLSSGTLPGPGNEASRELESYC

T2: human GIP receptor (human, UniProt P48546 22-466)
T2 sequence (looked up): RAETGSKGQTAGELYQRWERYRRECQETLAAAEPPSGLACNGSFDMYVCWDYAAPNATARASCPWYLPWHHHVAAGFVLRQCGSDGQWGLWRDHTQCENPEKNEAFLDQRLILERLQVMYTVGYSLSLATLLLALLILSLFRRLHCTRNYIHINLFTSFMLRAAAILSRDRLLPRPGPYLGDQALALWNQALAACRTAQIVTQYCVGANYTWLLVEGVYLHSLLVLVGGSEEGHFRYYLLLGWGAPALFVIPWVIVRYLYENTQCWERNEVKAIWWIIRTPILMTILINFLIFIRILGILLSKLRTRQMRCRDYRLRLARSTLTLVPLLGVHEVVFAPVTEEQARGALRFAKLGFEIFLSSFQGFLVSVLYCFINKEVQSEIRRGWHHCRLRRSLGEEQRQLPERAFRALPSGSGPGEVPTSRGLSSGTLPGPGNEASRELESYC

B1: Example 220 (peptide)
peptide: YXEGTXTSDXXIXLDXIAQXKFIXXLIKGGPSSGAPPPS
modifications: Y-Aib-EGT-αMeF(2F)-TSD-4Pal-Aib-I-αMeL-LD-Orn-IAQ-Aib-K((2-[2-(2-Amino-ethoxy)-ethoxy]-acetyl)2-(γ-Glu)-CO-(CH2)12-CO2H)FI-(D-Glu)-αMeY-LIK((2-[2-(2-Amino-ethoxy)-ethoxy]-acetyl)2-(γ-Glu)-CO-(CH2)12-CO2H)GGPSSGAPPPS-NH2
B2: Example 244 (peptide)
peptide: YXEGTXTSDXXIXLDXKAQXEFIXXLIKGGPSSGAPPPS
modifications: Y-Aib-EGT-αMeF(2F)-TSD-4Pal-Aib-I-αMeL-LD-Orn-K((2-[2-(2-Amino-ethoxy)-ethoxy]-acetyl)2-(γ-Glu)-(10-(4-carboxyphenoxy)decanoyl))AQ-Aib-EFI-(D-Glu)-αMeY-LIK((2-[2-(2-Amino-ethoxy)-ethoxy]-acetyl)2-(γ-Glu)-(10-(4-carboxyphenoxy)decanoyl))GGPSSGAPPPS-NH2
B3: Example 236 (peptide)
peptide: YXEGTXTSDYXIXLDXKAQXKFIXXLIEGGPSSGAPPPS
modifications: Y-Aib-EGT-αMeF(2F)-TSDY-Aib-I-αMeL-LD-Orn-K((2-[2-(2-Amino-ethoxy)-ethoxy]-acetyl)2-(γ-Glu)-(10-(4-carboxyphenoxy)decanoyl))AQ-Aib-K((2-[2-(2-Amino-ethoxy)-ethoxy]-acetyl)2-(γ-Glu)-(10-(4-carboxyphenoxy)decanoyl))FI-(D-Glu)-αMeY-LIEGGPSSGAPPPS-NH2
B4: Example 234 (peptide)
peptide: YXEGTXTSDYXIXLDXIAQXKFIXXLIKGGPSSGAPPPS
modifications: Y-Aib-EGT-αMeF(2F)-TSDY-Aib-I-αMeL-LD-Orn-IAQ-Aib-K((2-[2-(2-Amino-ethoxy)-ethoxy]-acetyl)2-(γ-Glu)-CO-(CH2)12-CO2H)Fl-(D-Glu)-αMeY-LIK((2-[2-(2-Amino-ethoxy)-ethoxy]-acetyl)2-(γ-Glu)-CO-(CH2)12-CO2H)GGPSSGAPPPS-NH2
B5: Example 230 (peptide)
peptide: YXEGTXTSDYXIXLDXKAQXKFIXXLIEGGPSSGAPPPS
modifications: Y-Aib-EGT-αMeF(2F)-TSDY-Aib-I-αMeL-LD-Orn-K((2-[2-(2-Amino-ethoxy)-ethoxy]-acetyl)2-(γ-Glu)-CO-(CH2)12-CO2H)AQ-Aib-K((2-[2-(2-Amino-ethoxy)-ethoxy]-acetyl)2-(γ-Glu)-CO-(CH2)12-CO2H)FI-(D-Glu)-αMeY-LIEGGPSSGAPPPS-NH2
B6: Example 231 (peptide)
peptide: YXEGTXTSDYXIXLDXKAQXEFIXXLIKGGPSSGAPPPS
modifications: Y-Aib-EGT-αMeF(2F)-TSDY-Aib-I-αMeL-LD-Orn-K((2-[2-(2-Amino-ethoxy)-ethoxy]-acetyl)2-(γ-Glu)-CO-(CH2)12-CO2H)AQ-Aib-EFI-(D-Glu)-αMeY-LIK((2-[2-(2-Amino-ethoxy)-ethoxy]-acetyl)2-(γ-Glu)-CO-(CH2)12-CO2H)GGPSSGAPPPS-NH2

How the values were obtained:
Assay in all cases: cell-based or functional assay
[1] = biological target: T1, human glucose-dependent insulinotropic polypeptide (GIP) receptor (human)
[2] = biological target: human glucagon receptor (human) (UniProt P47871)
[3] = biological target: human glucagon-like peptide-1 (GLP-1) receptor (human) (UniProt P43220)
human GIP receptor = biological target: T2, human GIP receptor
human GLP-1 receptor = human GLP-1 receptor (human, UniProt P43220 24-463)
human glucagon receptor = human glucagon receptor (human, UniProt P47871 26-477)

Binder | cAMP EC50 [1] [nM] | cAMP Emax [1] [%] | cAMP EC50 [2] [nM] | cAMP EC50 [3] [nM] | cAMP Emax [3] [%] | cAMP EC50 (1.0% HSA) (human GIP receptor) [nM] | cAMP Emax (1.0% HSA) (human GIP receptor) [%] | cAMP EC50 (1.0% HSA) (human GLP-1 receptor) [nM] | cAMP Emax (1.0% HSA) (human GLP-1 receptor) [%] | cAMP EC50 (1.0% HSA) (human glucagon receptor) [nM]
B1 | 0.0237 | 91.6 | > 9950 | 0.535 | 87.6 | 11.6 | 83.5 | 150 | 110 | > 9950
B2 | 0.0218 | 101 | > 9950 | 2.25 | 104 | 0.983 | – | 30.8 | – | –
B3 | 0.0154 | 104 | > 9950 | 0.336 | 96.5 | 0.641 | 80.5 | 32.6 | 125 | > 9950
B4 | 0.0182 | 107 | > 9950 | 0.319 | 112 | 7.58 | 84.4 | 156 | 102 | > 9950
B5 | 0.0199 | 105 | > 9950 | 0.726 | 90.3 | 2.57 | 85.8 | 49.7 | – | > 9950
B6 | 0.0184 | 102 | > 9950 | 1.22 | 107 | 2.46 | 85.4 | 51.8 | – | > 9950
